According to publication doi:10.1101/2023.07.18.549521 (bioRxiv, 2023):

B1: full-length tepsin-GST (residues 1-525) (natural protein)
chain: MAAAPPLRDRLSFLHRLPILLKGTSDDDVPCPGYLFEEIAKISHESPGSSQCLLEYLLSRLHSSSGHGKLKVLKILLYLCSHGSSFFLLILKRNSAFIQEAAAFAGPPDPLHGNSLYQKVRAAAQDLGSTLFSDTVLPLAPSQPLGTPPATGMGSQARPHSTLQGFGYSKEHGRTAVRHQPGQAGGGWDELDSGPSSQNSSQNSDLSRVSDSGSHSGSDSHSGASREPGDLAERVEVVALSDCQQELSLVRTVTRGPRAFLSREEAQHFIKACGLLNCEAVLQLLTCHLRGTSECTQLRALCAIASLGSSDLLPQEHILLRTRPWLQELSMGSPGPVTNKATKILRHFEASCGQLSPARGTSAEPGPTAALPGPSDLLTDAVPLPGSQVFLQPLSSTPVSSRSPAPSSGMPSSPVPTPPPDASPIPAPGDPSEAEARLAESRRWRPERIPGGTDSPKRGPSSCAWSRDSLFAGMELVACPRLVGAGAAAGESCPDAPRAPQTSSQRTAAKEPPGSEPSAFAFLNA
B2: AP-4 β4 appendage domain (residues 615-739) (domain or fragment, UniProt Q9Y6B7 615-739, looked up)
chain: SGALMLVPNRQLTADYFEKTWLSLKVAHQQVLPWRGEFHPDTLQMALQVVNIQTIAMSRAGSRPWKAYLSAQDDTGCLFLTELLLEPGNSEMQISVKQNEARTETLNSFISVLETVIGTIEEIKS

Legend:
[1] = biological target: T1, His6x-LC3B (residues 1-120) (UniProt Q9GZQ8 1-120); assay: pull-down
[2] = biological target: T1, His6x-LC3B (residues 1-120); assay: ITC
[3] = biological target: B1; assay: pull-down

B1
binding result [1]: binds

SGGGWDELDS [tepsin LIR motif peptide (residues 185-193)]
Kd [2]: 44.4 µM

B2
binding result [3]: binds
